The supplement of paper PMC9233669
Fewer inactive variants are shown than the library holds.

How the values were obtained:
biotinyl-Phe-oxazolone = assay: self-aminoacylation, catalytic enhancement (BFO) (fold over background); higher = more active; k-Seq, kA / k0A0; sequences stand for … in GGGAAUGGAUCCACAUCUACGAAUUC…UUCACUGCAGACUUGACGAAGCUG
In short: (§1)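 Mutagenized RNA pools with a 21-nt variable region (0.43 μM) reacted with each biotinyl-aminoacyl-oxazolone at 2–1250 μM. Reactions ran in 50 μL HEPES/NaCl/KCl/MgCl2/CaCl2 buffer with 5% acetonitrile, pH 6.9–7.0, for 90 minutes at room temperature. Streptavidin-captured RNA was quantified by triplicate qPCR and Illumina sequencing, and per-sequence fraction reacted was fit to a pseudo-first-order model with 1000 bootstraps. Catalytic enhancement is median kA divided by the uncatalyzed rate, the low-activity peak of a bimodal Gaussian fit.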

biotinyl-Met-oxazolone = assay: self-aminoacylation, catalytic enhancement (BMO) (fold over background); higher = more active; k-Seq, kA / k0A0; sequences stand for … in GGGAAUGGAUCCACAUCUACGAAUUC…UUCACUGCAGACUUGACGAAGCUG
In short: as §1

biotinyl-Trp-oxazolone = assay: self-aminoacylation, catalytic enhancement (BWO) (fold over background); higher = more active; k-Seq, kA / k0A0; sequences stand for … in GGGAAUGGAUCCACAUCUACGAAUUC…UUCACUGCAGACUUGACGAAGCUG
In short: as §1

biotinyl-Leu-oxazolone = assay: self-aminoacylation, catalytic enhancement (BLO) (fold over background); higher = more active; k-Seq, kA / k0A0; sequences stand for … in GGGAAUGGAUCCACAUCUACGAAUUC…UUCACUGCAGACUUGACGAAGCUG
In short: as §1

biotinyl-Val-oxazolone = assay: self-aminoacylation, catalytic enhancement (BVO) (fold over background); higher = more active; k-Seq, kA / k0A0; sequences stand for … in GGGAAUGGAUCCACAUCUACGAAUUC…UUCACUGCAGACUUGACGAAGCUG
In short: as §1

biotinyl-Ile-oxazolone = assay: self-aminoacylation, catalytic enhancement (BIO) (fold over background); higher = more active; k-Seq, kA / k0A0; sequences stand for … in GGGAAUGGAUCCACAUCUACGAAUUC…UUCACUGCAGACUUGACGAAGCUG
In short: as §1

Sequence	self-aminoacylation (biotinyl-Phe-oxazolone)	self-aminoacylation (biotinyl-Met-oxazolone)	self-aminoacylation (biotinyl-Trp-oxazolone)	self-aminoacylation (biotinyl-Leu-oxazolone)	self-aminoacylation (biotinyl-Val-oxazolone)	self-aminoacylation (biotinyl-Ile-oxazolone)
CCACAGUACAAGCAAUCGGUC [Fam1B.1 aminoacylation ribozyme variant]	1.77	1.27	0.861	1.03	1.24	1.17
CCACAGUUCAAGCAAUCGGUA [Fam1B.1 aminoacylation ribozyme variant]	0.787	1.28	0.707	1.01	1.13	1.08
CCACAGUUCAAGCAGUCGGUC [Fam1B.1 aminoacylation ribozyme variant]	0.63	1.01	0.757	1.04	1.2	0.937
CCACAGUUCACGCAAUCGGUC [Fam1B.1 aminoacylation ribozyme variant]	3.2	1.51	2.1	1.73	1.86	1.45
CCACAGUUCAUGCAAUCGGUC [Fam1B.1 aminoacylation ribozyme variant]	0.779	0.972	0.884	1.16	1.12	1.1
CCACAUUUCAAGCAACCGGUC [Fam1B.1 aminoacylation ribozyme variant]	1.11	1.09	1.34	1.11	1.64	1.53
CCACAUUUCAAGCAAUCGGGC [Fam1B.1 aminoacylation ribozyme variant]	1.7	3.55	2.91	2.78	2.7	3.08
CCACAUUUCAAGCAAUCGGUU [Fam1B.1 aminoacylation ribozyme variant]	1.25	1.62	1.2	1.56	1.71	1.59
CCACAUUUCUAGCAAUCGGUC [Fam1B.1 aminoacylation ribozyme variant]	1.49	1.35	1.22	1.4	1.76	1.83
CCACAUUUGAAGCAAUCGGUC [Fam1B.1 aminoacylation ribozyme variant]	1.09	1.04	0.886	1.17	1.31	1.28
CCACCCGUCAAGCAAUCGGUC [Fam1B.1 aminoacylation ribozyme variant]	1.12	1.2	1.08	1.12	1.44	1.24
CCACCCUACAAGCAAUCGGUC [Fam1B.1 aminoacylation ribozyme variant]	0.931	1.3	1.16	1.19	1.17	1.36
CCACCCUUCAAACAAUCGGUC [Fam1B.1 aminoacylation ribozyme variant]	81.3	1.43	38.9	2.18	1.86	1.39
CCACCCUUCAAGCAAUAGGUC [Fam1B.1 aminoacylation ribozyme variant]	0.807	0.575	0.452	0.529	0.711	0.645
CCACCCUUCAAGCAAUCAGUC [Fam1B.1 aminoacylation ribozyme variant]	5.72	0.672	1.94	0.775	0.828	0.736
CCACCCUUCAAGCAAUCGGAC [Fam1B.1 aminoacylation ribozyme variant]	0.866	0.991	0.664	0.712	1.31	1.04
CCACCCUUCAAGCAAUCGUUC [Fam1B.1 aminoacylation ribozyme variant]	0.85	0.584	0.742	0.611	0.89	0.888
CCACCCUUCAAGCACUCGGUC [Fam1B.1 aminoacylation ribozyme variant]	0.826	1.14	1.46	1.15	1.68	1.54
CCACCCUUCAAGGAAUCGGUC [Fam1B.1 aminoacylation ribozyme variant]	3.31	1.34	4	1.27	1.32	1.36
CCACCCUUCAGGCAAUCGGUC [Fam1B.1 aminoacylation ribozyme variant]	1.82	1.57	1.71	1.55	2.12	1.71
CCACCCUUUAAGCAAUCGGUC [Fam1B.1 aminoacylation ribozyme variant]	1.34	0.892	0.888	0.983	1.21	1.16
CCACGCGUCAAGCAAUCGGUC [Fam1B.1 aminoacylation ribozyme variant]	0.748	0.841	0.802	0.71	1.2	0.827
CCACGCUUCAAGCAAACGGUC [Fam1B.1 aminoacylation ribozyme variant]	0.644	0.457	0.544	0.477	0.665	0.647
CCACGCUUCAAGCAAUCGGUG [Fam1B.1 aminoacylation ribozyme variant]	5.52	3.73	4.43	5.09	2.41	2.49
CCACGGUUCAAGCAAUCGGUC [Fam1B.1 aminoacylation ribozyme variant]	2.64	1.02	2.21	1.07	1.22	1.08
CCACGUCAAACAAUCGGUCUG [Fam1A.1 aminoacylation ribozyme variant]	2.2	1.75	2.31	1.36	1.95	1.89

Sequence	self-aminoacylation (biotinyl-Phe-oxazolone)	self-aminoacylation (biotinyl-Met-oxazolone)	self-aminoacylation (biotinyl-Trp-oxazolone)	self-aminoacylation (biotinyl-Leu-oxazolone)	self-aminoacylation (biotinyl-Val-oxazolone)	self-aminoacylation (biotinyl-Ile-oxazolone)
CCACGUUUCAAGCAAUCGGUC [Fam1B.1 aminoacylation ribozyme variant]	77.2	2.85	37.6	3.36	3.47	2.68
CCACUCUUCAAGCAAGCGGUC [Fam1B.1 aminoacylation ribozyme variant]	0.629	0.806	0.585	1.09	0.97	0.909
CCACUCUUCAAGCAAUCGAUC [Fam1B.1 aminoacylation ribozyme variant]	1.28	0.448	0.516	0.522	0.735	0.542
CCACUCUUCAAGUAAUCGGUC [Fam1B.1 aminoacylation ribozyme variant]	4.71	0.823	3.88	0.969	1.08	0.854
CCACUCUUCACGCAAUCGGUC [Fam1B.1 aminoacylation ribozyme variant]	0.819	1.05	0.952	1.13	1.21	1.08
CCACUUCAAACAAUCGGGCUG [Fam1A.1 aminoacylation ribozyme variant]	27.3	2.13	27.2	2.63	3.05	2.12
CCACUUCAAACAAUCGGUCAG [Fam1A.1 aminoacylation ribozyme variant]	13.7	0.992	9.79	1.03	1.04	1.01
CCACUUCAAACAAUCGGUCUA [Fam1A.1 aminoacylation ribozyme variant]	28.5	0.991	17.4	1.5	0.99	1.19
CCACUUCAAACAAUCGGUUUG [Fam1A.1 aminoacylation ribozyme variant]	80.3	1.37	39.5	2.57	1.83	1.39
CCACUUCAAACUAUCGGUCUG [Fam1A.1 aminoacylation ribozyme variant]	0.866	1.39	1.39	1.16	1.46	1.44
CCACUUCCAACAAUCGGUCUG [Fam1A.1 aminoacylation ribozyme variant]	1.13	1.11	1.6	1.15	1.11	0.991
CCACUUUUCAAGCAAUCGGUC [Fam1B.1 aminoacylation ribozyme variant]	1.58	1.1	1.06	1.1	1.32	1.25
CCAGACUUCAACCAAUCGGUC [Fam1B.1 aminoacylation ribozyme variant]	51.2	1.63	31.4	2.1	1.72	1.39
CCAGACUUCAAGCAAUCAGUC [Fam1B.1 aminoacylation ribozyme variant]	12.6	0.826	5.08	1.03	0.837	1.04
CCAGACUUCAAGCAAUCGAUC [Fam1B.1 aminoacylation ribozyme variant]	1.51	0.559	0.639	0.614	0.778	0.714
CCAGACUUCAAGCGAUCGGUC [Fam1B.1 aminoacylation ribozyme variant]	1.63	1.17	1.82	1.83	1.8	1.36
CCAGACUUCAGGCAAUCGGUC [Fam1B.1 aminoacylation ribozyme variant]	1.79	1.36	1.83	1.57	1.64	1.45
CCAGAUUUCAAGCAAUCGGUC [Fam1B.1 aminoacylation ribozyme variant]	3.36	1.48	2.91	1.38	1.4	1.5
CCAUACAUCAAGCAAUCGGUC [Fam1B.1 aminoacylation ribozyme variant]	1.06	0.792	0.687	0.841	0.981	1.04
CCAUACUUCAAGCAAUCCGUC [Fam1B.1 aminoacylation ribozyme variant]	0.96	0.829	0.766	0.949	1.12	1.15
CCAUACUUCAAGCGAUCGGUC [Fam1B.1 aminoacylation ribozyme variant]	1.17	1.02	0.926	0.976	1.25	1.15
CCCCACUUCAAGCAAUCCGUC [Fam1B.1 aminoacylation ribozyme variant]	3.48	1	2.64	1.02	1.6	1.62
CCCCACUUCAAGCAAUCGGGC [Fam1B.1 aminoacylation ribozyme variant]	4.2	3.15	5.69	2.43	2.92	2.37
CCCCACUUCAAGCAAUCGGUC [Fam1B.1 aminoacylation ribozyme variant]	57.5	1.48	31.5	1.97	1.83	1.54
CCCCUUCAAACAAUCGGUCUG [Fam1A.1 aminoacylation ribozyme variant]	185	2.05	72.5	3.29	2.44	1.79
